Columns and labels:
[1] = biological target: T1, GST-TAO (wild-type, N1-348) (Pseudomonas putida, UniProt H8Y0R3); assay: ultrafiltration, fluorescence of unbound FAD; assay type: binding; conditions: 3 µM FAD, 3 µM enzyme, 20 mM Tris-HCl pH 8.0, 25°C
T1 construct: full length TAO (348 aa, 39,328 Da calculated), N-terminal GST tag kept (pGEX-5X-1), expressed in E. coli BL21(DE3), GSTrap purified, 68 kDa on SDS-PAGE
T1 sequence (H8Y0R3 1-348): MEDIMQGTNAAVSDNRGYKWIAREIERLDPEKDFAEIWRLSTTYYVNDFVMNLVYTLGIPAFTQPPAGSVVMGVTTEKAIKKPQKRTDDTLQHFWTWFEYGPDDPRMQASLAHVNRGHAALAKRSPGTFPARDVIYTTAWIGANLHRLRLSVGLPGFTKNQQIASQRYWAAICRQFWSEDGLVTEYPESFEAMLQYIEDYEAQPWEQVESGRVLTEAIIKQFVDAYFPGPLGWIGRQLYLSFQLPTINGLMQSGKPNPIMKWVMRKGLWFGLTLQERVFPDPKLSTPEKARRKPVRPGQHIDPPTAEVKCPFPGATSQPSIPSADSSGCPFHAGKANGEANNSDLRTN
Text: ultrafiltration, fluorescence of unbound FAD on GST-TAO (wild-type, N1-348)

GST-TAO (N1–304) = biological target: T2, GST-TAO (N1–304) (Pseudomonas putida, UniProt H8Y0R3); assay: ultrafiltration, fluorescence of unbound FAD; assay type: binding; conditions: 3 µM FAD, 3 µM enzyme, 20 mM Tris-HCl pH 8.0, 25°C
T2 construct: N-terminal fragment residues 1-304, N-terminal GST tag kept, expressed in E. coli BL21(DE3), purified
T2 sequence (H8Y0R3 1-304): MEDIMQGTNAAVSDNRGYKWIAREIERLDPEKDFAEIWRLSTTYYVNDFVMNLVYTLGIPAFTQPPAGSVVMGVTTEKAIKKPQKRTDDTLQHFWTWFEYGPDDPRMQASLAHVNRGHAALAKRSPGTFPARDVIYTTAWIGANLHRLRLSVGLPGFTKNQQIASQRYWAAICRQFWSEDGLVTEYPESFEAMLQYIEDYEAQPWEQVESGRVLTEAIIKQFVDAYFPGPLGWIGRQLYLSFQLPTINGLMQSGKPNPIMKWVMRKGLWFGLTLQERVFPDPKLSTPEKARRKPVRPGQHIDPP
Text: ultrafiltration, fluorescence of unbound FAD on GST-TAO (N1–304)

GST-TAO (N1–104) = biological target: T3, GST-TAO (N1–104) (Pseudomonas putida, UniProt H8Y0R3); assay: ultrafiltration, fluorescence of unbound FAD; assay type: binding; conditions: 3 µM FAD, 3 µM enzyme, 20 mM Tris-HCl pH 8.0, 25°C
T3 construct: N-terminal fragment residues 1-104, N-terminal GST tag kept, expressed in E. coli BL21(DE3), purified
T3 sequence (H8Y0R3 1-104): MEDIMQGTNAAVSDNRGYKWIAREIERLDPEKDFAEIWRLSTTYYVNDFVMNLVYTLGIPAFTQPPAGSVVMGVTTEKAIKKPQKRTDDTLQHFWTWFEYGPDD
Text: ultrafiltration, fluorescence of unbound FAD on GST-TAO (N1–104)

GST-TAO (N1–261) = biological target: T4, GST-TAO (N1–261) (Pseudomonas putida, UniProt H8Y0R3); assay: ultrafiltration, fluorescence of unbound FAD; assay type: binding; conditions: 3 µM FAD, 3 µM enzyme, 20 mM Tris-HCl pH 8.0, 25°C
T4 construct: N-terminal fragment residues 1-261, N-terminal GST tag kept, expressed in E. coli BL21(DE3), purified
T4 sequence (H8Y0R3 1-261): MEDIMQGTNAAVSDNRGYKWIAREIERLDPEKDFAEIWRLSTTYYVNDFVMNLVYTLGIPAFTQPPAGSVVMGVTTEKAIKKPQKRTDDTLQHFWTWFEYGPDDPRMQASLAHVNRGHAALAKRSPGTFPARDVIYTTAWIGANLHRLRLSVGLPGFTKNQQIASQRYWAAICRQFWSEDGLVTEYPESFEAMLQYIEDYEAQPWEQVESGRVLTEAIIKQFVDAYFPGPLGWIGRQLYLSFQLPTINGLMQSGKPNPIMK
Text: ultrafiltration, fluorescence of unbound FAD on GST-TAO (N1–261)

GST-TAO (N1–174) = biological target: T5, GST-TAO (N1–174) (Pseudomonas putida, UniProt H8Y0R3); assay: ultrafiltration, fluorescence of unbound FAD; assay type: binding; conditions: 3 µM FAD, 3 µM enzyme, 20 mM Tris-HCl pH 8.0, 25°C
T5 construct: N-terminal fragment residues 1-174, N-terminal GST tag kept, expressed in E. coli BL21(DE3), purified
T5 sequence (H8Y0R3 1-174): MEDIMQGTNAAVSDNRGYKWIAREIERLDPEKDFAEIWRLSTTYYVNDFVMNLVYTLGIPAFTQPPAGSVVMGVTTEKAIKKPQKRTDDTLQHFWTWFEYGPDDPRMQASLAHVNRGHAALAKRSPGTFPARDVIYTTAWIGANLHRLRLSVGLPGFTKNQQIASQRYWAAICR
Text: ultrafiltration, fluorescence of unbound FAD on GST-TAO (N1–174)

GST-TAO (N175–348) = biological target: T6, GST-TAO (N175–348) (Pseudomonas putida, UniProt H8Y0R3); assay: ultrafiltration, fluorescence of unbound FAD; assay type: binding; conditions: 3 µM FAD, 3 µM enzyme, 20 mM Tris-HCl pH 8.0, 25°C
T6 construct: C-terminal fragment residues 175-348 (plasmid pGEX-TAO (C174)), N-terminal GST tag kept, expressed in E. coli BL21(DE3), purified
T6 sequence (H8Y0R3 175-348): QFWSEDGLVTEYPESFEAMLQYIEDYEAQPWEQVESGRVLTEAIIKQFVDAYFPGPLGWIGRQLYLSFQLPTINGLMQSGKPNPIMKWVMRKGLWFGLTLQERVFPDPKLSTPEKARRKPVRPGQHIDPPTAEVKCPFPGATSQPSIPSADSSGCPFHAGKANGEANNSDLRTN
Text: ultrafiltration, fluorescence of unbound FAD on GST-TAO (N175–348)

purified protein [2] = substrate: C/C=C/c1ccc(OC)c(OC)c1; assay: purified protein; conditions: 10 mM NADH, 15 µM FAD, pH 8.0, 30°C, formate dehydrogenase regeneration
Text: (§1) HPLC of aldehyde product, Michaelis-Menten nonlinear regression on GST-TAO (wild-type, N1-348)

purified protein [3] = substrate: CC=Cc1ccc2c(c1)OCO2; assay: purified protein; conditions: 10 mM NADH, 15 µM FAD, pH 8.0, 30°C, formate dehydrogenase regeneration
Text: as §1

purified protein [4] = substrate: CC=Cc1ccc(O)c(OC)c1; assay: purified protein; conditions: 10 mM NADH, 15 µM FAD, pH 8.0, 30°C, formate dehydrogenase regeneration
Text: as §1

[5] = substrate: C/C=C/c1ccc(OC)cc1; assay: HPLC of p-anisaldehyde product, Michaelis-Menten nonlinear regression; assay type: biochemical, Pseudomonas putida; conditions: 10 mM NADH, 15 µM FAD, pH 8.0, 30°C, formate dehydrogenase regeneration, text b30 prints 64.70±2.40
Text: HPLC of p-anisaldehyde product, Michaelis-Menten nonlinear regression on GST-TAO (wild-type, N1-348)

Molecule: Cc1cc2nc3c(=O)[nH]c(=O)nc-3n(C[C@H](O)[C@H](O)[C@H](O)COP(=O)(O)OP(=O)(O)OC[C@H]3O[C@@H](n4cnc5c(N)ncnc54)[C@H](O)[C@@H]3O)c2cc1C [FAD]
- μM FAD/μM enzyme [1]: 0.30±0.05 µM FAD/µM enzyme
- μM FAD/μM enzyme (GST-TAO (N1–304)): 0.19±0.04 µM FAD/µM enzyme
- μM FAD/μM enzyme (GST-TAO (N1–104)): 0.20±0.01 µM FAD/µM enzyme
- μM FAD/μM enzyme (GST-TAO (N1–261)): 0.15±0.04 µM FAD/µM enzyme
- μM FAD/μM enzyme (GST-TAO (N1–174)): 0.18±0.03 µM FAD/µM enzyme
- μM FAD/μM enzyme (GST-TAO (N175–348)): 0.02±0.02 µM FAD/µM enzyme

B1: GST-TAO (wild-type, N1-348) (Pseudomonas putida) (protein)
chain: MEDIMQGTNAAVSDNRGYKWIAREIERLDPEKDFAEIWRLSTTYYVNDFVMNLVYTLGIPAFTQPPAGSVVMGVTTEKAIKKPQKRTDDTLQHFWTWFEYGPDDPRMQASLAHVNRGHAALAKRSPGTFPARDVIYTTAWIGANLHRLRLSVGLPGFTKNQQIASQRYWAAICRQFWSEDGLVTEYPESFEAMLQYIEDYEAQPWEQVESGRVLTEAIIKQFVDAYFPGPLGWIGRQLYLSFQLPTINGLMQSGKPNPIMKWVMRKGLWFGLTLQERVFPDPKLSTPEKARRKPVRPGQHIDPPTAEVKCPFPGATSQPSIPSADSSGCPFHAGKANGEANNSDLRTN
notes: full length TAO (348 aa, 39,328 Da calculated), N-terminal GST tag kept (pGEX-5X-1), expressed in E. coli BL21(DE3), GSTrap purified, 68 kDa on SDS-PAGE
- Km (purified protein [2]): 225.65 ± 22.27 µM
- Vmax (purified protein [2]): 0.06 µmol/min/mg
- kcat (purified protein [2]): 0.13 s⁻¹
- kcat/Km (purified protein [2]): 560 M⁻¹ s⁻¹
- Km (purified protein [3]): 229.50 ± 32.10 µM
- Vmax (purified protein [3]): 0.26 µmol/min/mg
- kcat (purified protein [3]): 0.56 s⁻¹
- kcat/Km (purified protein [3]): 2450 M⁻¹ s⁻¹
- Km (purified protein [4]): 2255.00 ± 346.48 µM
- Vmax (purified protein [4]): 0.52 µmol/min/mg
- kcat (purified protein [4]): 1.13 s⁻¹
- kcat/Km (purified protein [4]): 500 M⁻¹ s⁻¹
- Km [5]: 63.70 ± 2.40 µM
- Vmax [5]: 0.23 µmol/min/mg
- kcat [5]: 0.49 s⁻¹
- kcat/Km [5]: 7690 M⁻¹ s⁻¹
